From US20200131473A1, “METHOD OF GENERATING 2 CELL-LIKE STEM CELLS” (IFOM FONDAZIONE ISTITUTO FIRC DI ONCOLOGIA MOLECOLARE, priority 2017, published 2020)

Assays:
Format in all cases: cell-based, mouse
[1] = tested on: pZscan4-Emerald ESCs; assay: FACS analysis of Zscan4-Emerald ESCs (Emerald-GFP positive cells)
Experimental: (§1) All treatments including APH, HU, UV, ATRi, ATMi and Chk1i were added in to fresh ESC medium and the cells were kept in 37° C. and 3% 02 tension for overnight (16-17 hrs) unless mentioned in each particular result section. APH was used at various concentrations ranging from 0.3 uM to 6 uM that is mentioned in each experiment in order to induce mild to acute replication stress response. Similarly, HU was used at 0.1 mM-3 mM. ATMi (KU-55933) and ATRi (VE 822) were used at the concentration of 10 uM and 1 uM respectively. Moreover, Chk1i (UCN-01) at the concentration of 100 nM was used. UV radiation was performed at the dosage ranging from 2 to 10 J/m2. For induction of ETAA1-AAD expression, Dox was used at the concentration of 1 μg/mL for 48 hrs.
ESCs were fixed and permeabilized using Cytoperm/Cytofix kit (BD Biosciences), and subsequently stained for one hour at room temperature with Alexa Fluor® 647 anti-H2AX-Phosphorylated (Ser139) antibody (Biolegend) or P-CHK1-PE conjugated antibody (cell signaling 12268). Cells were washed and acquired on a FACS Calibur instrument or Attune NxT (Thermo Fisher Scientific). For Emerald-GFP acquisition, cells were trypsinized, collected and subsequently acquired without fixation. Cell cycle profiles were acquired after incubation with DAPI (4′,6-diamidino-2-phenylindole) overnight. […]

[2] = tested on: 2C-like genes (Zscan4, MuERV-L/MERVL, Dux) in ESCs (E14, R1); assay: qPCR for 2C-like specific genes in ESCs; details: Dox-inducible expression of ETAA1-AAD
Experimental: as §1
RNA was extracted using RNeasy mini kit (QIAGEN), quantified by NanoDrop spectrophotometer and cDNA was prepared from 2 μg total DNA-depleted RNA using SuperScript™ III reverse transcriptase kit (Invitrogen cat #18080-093) following manufacturer's instructions. qPCR assay performed based on standard protocol using 10× SsoFast™ EvaGreen® Supermix or later 1× LightCycler 480 SYBR Green I Master (Roche, 04707516001), 0.5 μM primer mix and 5 ng of cDNA. GAPDH was used as internal control to normalise the qPCR data following ΔΔCt method, 10 μM primer mix and a total amount of cDNA corresponding to 5 ng of starting RNA for each reaction.

[3] = tested on: ATR pathway (γH2AX, CHK1, CHK2 phosphorylation); assay: FACS and immunoblot for ATR pathway activation upon ETAA1-AAD overexpression; details: for number of γH2AX positive cells: versus empty vector (EV) infected ESCs
Description: ESCs were fixed and permeabilized using Cytoperm/Cytofix kit (BD Biosciences), and subsequently stained for one hour at room temperature with Alexa Fluor® 647 anti-H2AX-Phosphorylated (Ser139) antibody (Biolegend) or P-CHK1-PE conjugated antibody (cell signaling 12268). Cells were washed and acquired on a FACS Calibur instrument or Attune NxT (Thermo Fisher Scientific). For Emerald-GFP acquisition, cells were trypsinized, collected and subsequently acquired without fixation. Cell cycle profiles were acquired after incubation with DAPI (4′,6-diamidino-2-phenylindole) overnight. For Caspase3 FACS analysis after fixation and permeabilization, Cleaved Caspase3 antibody were used for one hr at RT followed by washes and one hr incubation in donkey anti rabbit secondary antibody. […]
The cells were trypsinized and washed with PBS and then lysed in RIPA buffer plus protease/phosphatase inhibitor cocktail (cell signaling, #5872), incubating for 30 minutes on a rotating wheel at +4° C. Lysates were sonicated with a Bioruptor Sonication System (UCD200) at high power for 3 cycles of 30 seconds with one minute breaks. Lysates were centrifuged at 13000 rpm for 20-30 minutes and clear supernatants were transferred to new tubes. The proteins were quantified using Bio-Rad protein assay and following manufacturer's instructions. For the detection of each protein, 35 μg of total protein extracts were loaded. Standard western blot was performed using following antibodies: ATR antibody (Cell Signaling 2790), Phoshpho-Chk1 antibody-S345 (Cell signaling 2348), Phoshpho-Chk1 antibody S317 (cell signaling 12302), Zscan4 antibody (Abcam ab4340), total Chk1 antibody (Santa Cruz 8408) and Chk2 antibody (Millipore 05-649), Anti-P53 (Cell Signalling, 2524S) and Anti-p-P53 (S15) (Cell Signalling, 12571S), Anti-Goat ALexa488 (Thermo Fisher Scientific, A-11055), Anti-Rabbit Cy3 (Jackson ImmunoResearch, 711-165-152), Anti-Mouse Alexa647 (Thermo Fisher Scientific, A-31571). […]

B1: ETAA1-AAD: ATR activating domain of Ewing's tumor-associated antigen 1, overexpressed in ESCs by lentivirus (SEQ ID NO: 2) (protein)
chain: VRQREQPPTAALCSKSNPEERYETPKRALKMETDSLSSSFSSPNDPDGQNDIFWDQNSPLTKQLGKGRKKQIYTTDSDEISHIVNRIAPQDEKPTTNSMETLDMETWIGETAIPCTPSVAKGKSRAKISCTKLKTQSQEEELMETKLAKQFDKNMETEELDVIQEQNKRNYDFTQ
[1]; Dox-inducible expression of ETAA1-AAD
  Z+ population in ESCs culture: significant increase
[1]; ETAA1-AAD lentivirus infected Zscan4-Emerald ESCs vs empty vector
  increase in the number of Zscan4-positive population in ESC culture: up to 3 fold
[2]
  transcription of Zscan4, Dux and MERVL: transcriptional activation of Zscan4, Dux and MERVL
[3]; ATR activation through ETAA1 expression
  phosphorylation of H2AX, CHK1 and CHK2 in ESCs: leads to the phosphorylation of H2AX and CHK1 but not CHK2
[3]
  number of γH2AX positive cells: increase in the number of γH2AX cells
[3]; listed as ETAA1-AAD lentivirus
  number of γH2AX positive cells: increase in the number of γH2AX positive cell
